We go through 9 substances from US20240307538A1.

Assay [1] has as its target Fc gamma macrophage receptors. Briefly: flow cytometry on human macrophages, hybrid 5 µg/ml, 20 h at 37°C, anti-Fc-FITC. On the technique in general: Flow cytometry measures light scatter and fluorescence of single cells or particles in a stream.
In assay [2] the target is Fc gamma macrophage receptors. In words: flow cytometry on human macrophages, hybrid 5 µg/ml, 2 h at 37°C, anti-Fc-FITC.
Assay [3] addresses Fc gamma macrophage receptors. Briefly: cell-based or functional assay.
Assay [4] has as its target Fc gamma receptors of NK cells. Briefly: cell-based or functional assay.
Assay [5] has as its target Fc gamma receptors of NK cells. Briefly: cytofluorimetry on NK cells, 48 h at 37°C.
Assay [6] has as its target Fc gamma receptors of NK cells. Briefly: cytofluorimetry on NK cells, 30 min at 37°C.
Assay [7] concerns the target Fc gamma receptors of NK cells. Briefly: cytofluorimetry on NK cells, 24 h at 37°C.
Assay [8] addresses Fc gamma receptors of NK cells. Briefly: cytofluorimetry on NK cells, labelled Fc 10 µg/ml, 30 min at 37°C, no IgG.
For assay [9], the target named is Fc gamma receptors of NK cells. In words: competition, cytofluorimetry on NK cells: labelled FcSDHFSTIE-N3-DBCO-A647 10 µg/ml with human IgG 1 µg/ml.
Assay [10] concerns the target Fc gamma receptors of NK cells. Briefly: competition, cytofluorimetry on NK cells: labelled FcSDHFSTIE-N3-DBCO-A647 10 µg/ml with human IgG 1000 µg/ml; ratio to NEG.
Assay [11] has as its target Fc gamma receptors of NK cells. Briefly: competition, cytofluorimetry on NK cells: labelled FcSDHFSTIE-N3-DBCO-A647 10 µg/ml with human IgG 1000 µg/ml.
For assay [12], the target named is Fc gamma receptors of NK cells. In words: competition, cytofluorimetry on NK cells: labelled FcSDHFSTIE-N3-DBCO-A647 10 µg/ml with human IgG 1 µg/ml; ratio to NEG.
The target of assay [13] is Fc gamma receptors of NK cells. Briefly: competition, cytofluorimetry on NK cells: labelled FcSDHFSTIE-N3-DBCO-A647 10 µg/ml with human IgG 10000 µg/ml.
Assay [14] addresses Fc gamma receptors of NK cells. In words: competition, cytofluorimetry on NK cells: labelled FcSDHFSTIE-N3-DBCO-A647 10 µg/ml with human IgG 100 µg/ml.
The target in assay [15] is Fc gamma receptors of NK cells. In words: competition, cytofluorimetry on NK cells: labelled FcSDHFSTIE-N3-DBCO-A647 10 µg/ml with human IgG 10 µg/ml.
Assay [16] addresses Fc gamma receptors of NK cells. Briefly: competition, cytofluorimetry on NK cells: labelled FcSDHFSTIE-N3-DBCO-A647 10 µg/ml with human IgG 100 µg/ml; ratio to NEG.
Assay [17] concerns the target Fc gamma receptors of NK cells. Briefly: competition, cytofluorimetry on NK cells: labelled FcSDHFSTIE-N3-DBCO-A647 10 µg/ml with human IgG 10000 µg/ml; ratio to NEG.
Assay [18] concerns the target Fc gamma receptors of NK cells. Briefly: competition, cytofluorimetry on NK cells: labelled FcSDHFSTIE-N3-DBCO-A647 10 µg/ml with human IgG 10 µg/ml; ratio to NEG.

On to “Fc-LALA-β60-74cit (from UniProt P01857 104-330) (Fc fusion)”, for which the Macrophages (fluorescence by cytofluorimetry) in [1] is 404; in [2], 502.

The substance “Fc-WT-PEG-α621-635cit (from UniProt P01857 104-330) (Fc fusion)” gave an inhibition of phagocytosis by competing human IgG at 10 mg/ml in assay [3] of 50%.

As to “Fc-WT-PEG-β60-74cit (from UniProt P01857 104-330) (Fc fusion)”, in assay [4], the % expression of CD107a (NK cell degranulation) came out at 1.8%.

As for “Fc-WT-β60-74cit (from UniProt P01857 104-330) (Fc fusion)”, the Macrophages (fluorescence by cytofluorimetry) in [1] was found to be 1000; in assay [2], 808.

Consider “FcLALAPG-β60-74 (from UniProt P01857 104-330) (Fc fusion)”, for which the % expression of CD107a (NK cell degranulation) in [4] was 2.2%.

Take “FcSDHFSTIE-N3-DBCO-A488 (from UniProt P01857 104-330)”: the MFI in assay [5] came out at 1710; in [6], 2970; in assay [7], 2350.

In turn, “FcSDHFSTIE-N3-DBCO-A647 (from UniProt P01857 104-330)” yielded an MFI in assay [8] of 38500.

Regarding “FcSDHFSTIE-N3-DBCO-PEG3-β60-74cit-lysineA488 (from UniProt P01857 104-330) (Fc fusion)”, the MFI was 4340 in [5], 4590 in [6] and 4090 in [7].

human IgG (antibody): the MFI of FcSDHFSTIE-N3-DBCO-A647 with IgG as competitor was determined as 37900 in assay [9]; 29500 in [11]; 20500 in assay [13]; 36300 in [14]; 38800 in assay [15]. The RATIO of FcSDHFSTIE-N3-DBCO-A647 with IgG as competitor came out at 139 in assay [10]; 179 in [12]; 171 in assay [16]; 96.6 in [17]; 183 in assay [18].
